Source: publication PMC7755911

Target: Biotinylated SARS-CoV-2 S protein RBD with a C-terminal AviTag (SARS-CoV-2) (UniProt P0DTC2)
Assay: BLI

Chain of NIH-CoVnb-112 (VHH) (VHH): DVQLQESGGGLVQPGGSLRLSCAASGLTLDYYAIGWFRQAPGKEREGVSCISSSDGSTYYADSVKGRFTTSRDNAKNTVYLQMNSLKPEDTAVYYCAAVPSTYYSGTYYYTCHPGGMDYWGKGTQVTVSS

NIH-CoVnb-112 (VHH)
Kd: 4.9 nM | koff: 0.000654 s⁻¹ | kon: 130000 M⁻¹ s⁻¹
